Assay results: US20160279215A1, “NOVEL PEPTIDES AND COMBINATION OF PEPTIDES FOR USE IN IMMUNOTHERAPY AGAINST VARIOUS TUMORS” (immatics biotechnologies GmbH, priority 2015, published 2016)

What follows are substances tested against T1, HLA-A*02:01 (Homo sapiens, UniProt P04439, D140Y/D185E/D98H/E176V/E277Q/G131W/G231S/I119V/I121R/I166T/I218V/L300P/L318F/N151K/N90K/P208A/P217A/Q86G/Q94H/R138H/R169H/T345S) (assay: MHC binding assay: UV-ligand exchange with β2m ELISA (peptide exchange yield)). Conditions: binding to HLA-A*02:01 evaluated by peptide exchange yield (UV-ligand exchange, β2m ELISA).
T1 construct: made in house
Description: Candidate peptides for T cell based therapies according to the present invention were further tested for their MHC binding capacity (affinity). The individual peptide-MHC complexes were produced by UV-ligand exchange, where a UV-sensitive peptide is cleaved upon UV-irradiation, and exchanged with the peptide of interest as analyzed. Only peptide candidates that can effectively bind and stabilize the peptide-receptive MHC molecules prevent dissociation of the MHC complexes. To determine the yield of the exchange reaction, an ELISA was performed based on the detection of the light chain (β2m) of stabilized MHC complexes. The assay was performed as generally described in Rodenko et al. (Rodenko et al., 2006).
96 well MAXISorp plates (NUNC) were coated over night with 2 ug/ml streptavidin in PBS at room temperature, washed 4× and blocked for 1 h at 37° C. in 2% BSA containing blocking buffer. Refolded HLA-A*02:01/MLA-001 monomers served as standards, covering the range of 15-500 ng/ml. Peptide-MHC monomers of the UV-exchange reaction were diluted 100 fold in blocking buffer. Samples were incubated for 1 h at 37° C., washed four times, incubated with 2 ug/ml HRP conjugated anti-β2m for 1 h at 37° C., washed again and detected with TMB solution that is stopped with […]. Absorption was measured at 450 nm. Candidate peptides that show a high exchange yield (preferably higher than 50%, most preferred higher than 75%) are generally preferred for a generation and production of antibodies or fragments thereof, and/or T cell receptors or fragments thereof, as they show sufficient avidity to the MHC molecules and prevent dissociation of the MHC complexes.

Substance	Peptide exchange
60 (YLFSQGLQGL; listed as Homo sapiens) [compound 60]	+++ (≧50 = +++)
93 (RLYGYFHDA; listed as Homo sapiens) [compound 93]	++ (≧20% = ++)
5 (GLVDIMVHL; listed as Homo sapiens) [compound 5]	+++ (≧50 = +++)
40 (KIWEELSVLEV; listed as Homo sapiens) [compound 40]	+++ (≧50 = +++)
99 (TLFGIQLTEA; listed as Homo sapiens) [compound 99]	+++ (≧50 = +++)
54 (YLVPGLVAA; listed as Homo sapiens) [compound 54]	+++ (≧50 = +++)
38 (VLQQESNFL; listed as Homo sapiens) [compound 38]	++ (≧20% = ++)
75 (ALLDGALQL; listed as Homo sapiens) [compound 75]	+++ (≧50 = +++)
49 (KLIGNIHGNEV; listed as Homo sapiens) [compound 49]	++ (≧20% = ++)
82 (ILAEEPIYIRV; listed as Homo sapiens) [compound 82]	+++ (≧50 = +++)
53 (AQHLSTLLL; listed as Homo sapiens) [compound 53]	+ (≧10% = +)
62 (SLVENIHVL; listed as Homo sapiens) [compound 62]	+++ (≧50 = +++)
31 (GLLETTGLLAT; listed as Homo sapiens) [compound 31]	+++ (≧50 = +++)
58 (HLLGEGAFAQV; listed as Homo sapiens) [compound 58]	+++ (≧50 = +++)
109 (ILGSFELQL; listed as Homo sapiens) [compound 109]	+++ (≧50 = +++)

Now from value to substance:

Peptide exchange	Substance
+++ (≧50 = +++)	144 (FLISQTPLL; listed as Homo sapiens) [compound 144]
++ (≧20% = ++)	133 (FLDGRPLTL; listed as Homo sapiens) [compound 133]
+++ (≧50 = +++)	218 (SLTGANITV; listed as Homo sapiens) [compound 218]
+++ (≧50 = +++)	140 (FLDSQITTV; listed as Homo sapiens) [compound 140]
+++ (≧50 = +++)	183 (ALSYILPYL; listed as Homo sapiens) [compound 183]
++ (≧20% = ++)	155 (TLDSYLKAV; listed as Homo sapiens) [compound 155]
++ (≧20% = ++)	124 (ALLLRLFTI; listed as Homo sapiens) [compound 124]
+++ (≧50 = +++)	173 (RLIDIYKNV; listed as Homo sapiens) [compound 173]
++ (≧20% = ++)	171 (LLLLDVPTA; listed as Homo sapiens) [compound 171]
+++ (≧50 = +++)	271 (VLIEYNFSI; listed as Homo sapiens) [compound 271]
++ (≧20% = ++)	176 (VQSGLRILL; listed as Homo sapiens) [compound 176]
+++ (≧50 = +++)	143 (MLWESIMRV; listed as Homo sapiens) [compound 143]
+++ (≧50 = +++)	239 (VIIKGLEEITV; listed as Homo sapiens) [compound 239]
+++ (≧50 = +++)	274 (TLYNPERTITV; listed as Homo sapiens) [compound 274]
++ (≧20% = ++)	235 (SLLNQPKAV; listed as Homo sapiens) [compound 235]
+++ (≧50 = +++)	214 (ALFETLIQL; listed as Homo sapiens) [compound 214]
++ (≧20% = ++)	273 (SLNKQIETV; listed as Homo sapiens) [compound 273]
+++ (≧50 = +++)	181 (LLWAPTAQA; listed as Homo sapiens) [compound 181]
